Laboratory results from article PMC7299280.

Biological target: SARS-CoV1-SΔ28 (SARS-CoV-1 spike protein truncated at the C terminus, on pseudovirions) (SARS-CoV-1)

For CC6.33 (antibody), the neutralization IC50 of SARS-CoV-1 pseudovirus was 0.162 µg/mL.
